Source: publication PMC4911930

Target: CENP-T^HFD/-W complex, Q5EE01
Assay: GST pull-down (Coomassie gel quantification)
Conditions: chain shown with the change, parent: est. 100, read off a plot

CENP-T^HFD/-W complex, Q5EE01, sequence (chain, as listed by the source, chain 1 of 2): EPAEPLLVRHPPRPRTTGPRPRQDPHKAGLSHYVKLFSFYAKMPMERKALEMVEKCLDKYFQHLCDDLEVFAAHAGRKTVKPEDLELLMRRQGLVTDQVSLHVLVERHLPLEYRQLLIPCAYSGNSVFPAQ
CENP-T^HFD/-W complex, Q5EE01, sequence (Q5EE01 whole entry, chain 2 of 2): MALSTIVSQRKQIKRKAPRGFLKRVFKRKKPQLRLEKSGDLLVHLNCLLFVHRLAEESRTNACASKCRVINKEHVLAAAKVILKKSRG

percent of parent (Exp=1): 81 % Pull-down | percent of parent (Exp=2): 90 % Pull-down
Binder: EPEGEGSDAAAAAAESEIEDETFNPSEDDYEEEEEDSDED [GST-Spt16 amino acids 926–965, Q9Y5B9 E935A; E936A; G937A; D938A; S939A]
